Data on 1 substance can be found in patent publication US20090202520A1.

The experiment addresses soluble recombinant FcγRIIIB (sFcγRIIIB) (UniProt O75015). The experiment in a line: SPR, comparison of SAP and CRP affinities.

Sequence of soluble recombinant FcγRIIIB (sFcγRIIIB) (O75015 17-200): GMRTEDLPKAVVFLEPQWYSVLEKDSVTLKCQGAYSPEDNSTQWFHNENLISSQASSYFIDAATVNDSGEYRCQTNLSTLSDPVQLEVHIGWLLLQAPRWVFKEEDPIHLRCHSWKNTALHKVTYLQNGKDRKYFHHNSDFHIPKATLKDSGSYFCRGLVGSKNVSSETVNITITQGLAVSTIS

As to “serum amyloid P (SAP) (from UniProt P02743 20-223) (ligand; other documents disagree on this pair)”, the fold affinity of SAP over CRP for the same receptor turned out to be 1000 fold.
